{"source": "paper PMC10713829", "about": "(Nature Communications, 2023)", "key": {"HLA-A*01:01/hβ2m [1]": {"target": "T1, HLA-A*01:01/hβ2m (Homo sapiens, UniProt P04439, /R68K/S129P/T187R/V100A/V91M/W191G)", "T1 construct": "BirA substrate peptide (biotinylation tag, […]), seen only in the HDX-MS peptide map (C); made in house", "assay": "Fluorescence anisotropy competition with TAMRA-NRAS^Q61K", "format": "binding", "method": "TAMRA association with K61 was modeled to not disrupt interaction with the HLA-A*01:01 groove because K61 is solvent-exposed. […] NRAS peptides were prepared by chemical synthesis (GenScript, Piscataway, USA). […] Data was recorded on a SpectraMax iD5 plate reader with an excitation filter of λex = 531 nm and an emission filter of λem = 595 nm with an PMT gain set to high, an integration time of 1200 msec and read height 0.5 mm. Each experiment was performed in triplicate (n = 3) and is representative of at least two independent experiments. Experimental values were subtracted from background r values obtained from incubation of TAMRA-NRAS^Q61K alone. […] IC50 values were obtain by fitting to a simple single-site (one phase association) model with DynaFit (http://www.biokin.com/dynafit)."}, "HLA-A*01:01/hβ2m [2]": {"target": "T2, HLA-A*01:01/hβ2m (Homo sapiens, UniProt P04439, A114D/A174V/A182V/D101N/D185E/E176A/E190D/L180R/Q94H/R68K/S129P/T187R/V100A/V91M/W191G)", "T2 construct": "BirA substrate peptide (biotinylation tag, […]), seen only in the HDX-MS peptide map (C); made in house", "assay": "Hydrogen-deuterium exchange mass spectrometry (HDX-MS) of empty and peptide-loaded complexes", "conditions": "for Average % deuterium uptake: 600s"}, "[3]": {"conditions": "fragment ASGSHSMRY 2-10, charge 2"}, "[4]": {"conditions": "fragment ASGSHSMRY 2-10, charge 3"}, "[5]": {"conditions": "fragment ASGSHSMRYF 2-11, charge 2"}}, "note": "Peptide text beside a SMILES is read from it.", "data": [{"molecule": "CC[C@H](C)[C@H](N)C(=O)N[C@@H](CC(C)C)C(=O)N[C@@H](CC(=O)O)C(=O)N[C@H](C(=O)N[C@@H](C)C(=O)NCC(=O)N[C@@H](CCCCN)C(=O)N[C@@H](CCC(=O)O)C(=O)N[C@@H](CCC(=O)O)C(=O)N[C@@H](Cc1ccc(O)cc1)C(=O)O)[C@@H](C)O", "note": "[NRAS^Q61K]", "values": [{"measurement": "IC50", "setting": "HLA-A*01:01/hβ2m [1]", "result": 260, "unit": "nM"}]}, {"molecule": "CC[C@H](C)[C@H](N)C(=O)N[C@@H](CC(C)C)C(=O)N[C@@H](CC(=O)O)C(=O)N[C@H](C(=O)N[C@@H](C)C(=O)NCC(=O)N[C@@H](CCC(N)=O)C(=O)N[C@@H](CCC(=O)O)C(=O)N[C@@H](CCC(=O)O)C(=O)N[C@@H](Cc1ccc(O)cc1)C(=O)O)[C@@H](C)O", "note": "[Q61] (H-ILDTAGQEEY-OH)", "values": [{"measurement": "IC50", "setting": "HLA-A*01:01/hβ2m [1]", "result": "278 ± 32", "unit": "nM"}]}, {"molecule": "NRAS^Q61H: NRAS55-64 neoepitope peptide with Q61H mutation (ILDTAGHEEY)", "values": [{"measurement": "% deuterium uptake of peptide fragments corresponding to the NRAS peptide", "setting": "HLA-A*01:01/hβ2m [2]; HDX-MS of peptide/HLA-A*01:01/hβ2m, back-exchange corrected, pD 6.5, 25 °C, up to 600 s, biological triplicates", "result": "approx. 75%"}, {"measurement": "Average % deuterium uptake", "setting": "HLA-A*01:01/hβ2m [2]; fragment ASGSHSMRY 2-10, charge 1", "result": 85.9593, "unit": "%"}, {"measurement": "Average % deuterium uptake", "setting": "HLA-A*01:01/hβ2m [2]; [3]", "result": 85.2218, "unit": "%"}, {"measurement": "Average % deuterium uptake", "setting": "HLA-A*01:01/hβ2m [2]; [4]", "result": 85.2836, "unit": "%"}, {"measurement": "Average % deuterium uptake", "setting": "HLA-A*01:01/hβ2m [2]; [5]", "result": 76.8148, "unit": "%"}]}, {"molecule": "NRAS^Q61L: NRAS55-64 neoepitope peptide with Q61L mutation (ILDTAGLEEY)", "values": [{"measurement": "deuterium uptake of the HLA-A*01:01 α2-1 helix (residues 139–155) in the peptide-loaded complex", "setting": "HLA-A*01:01/hβ2m [2]; HDX-MS, back-exchange corrected, pD 6.5, 25 °C, comparison among peptide-loaded samples", "result": "significantly reduced deuterium uptake"}, {"measurement": "Average % deuterium uptake", "setting": "HLA-A*01:01/hβ2m [2]; [3]", "result": 83.6219, "unit": "%"}, {"measurement": "Average % deuterium uptake", "setting": "HLA-A*01:01/hβ2m [2]; [4]", "result": 84.5527, "unit": "%"}, {"measurement": "Average % deuterium uptake", "setting": "HLA-A*01:01/hβ2m [2]; [5]", "result": 77.0018, "unit": "%"}]}, {"molecule": "NRAS^Q61R: NRAS55-64 neoepitope peptide with Q61R mutation (ILDTAGREEY)", "values": [{"measurement": "Average % deuterium uptake", "setting": "HLA-A*01:01/hβ2m [2]; [3]", "result": 83.2364, "unit": "%"}, {"measurement": "Average % deuterium uptake", "setting": "HLA-A*01:01/hβ2m [2]; [4]", "result": 83.3198, "unit": "%"}, {"measurement": "Average % deuterium uptake", "setting": "HLA-A*01:01/hβ2m [2]; [5]", "result": 78.2896, "unit": "%"}]}]}
